According to patent publication US20210340232A1, “MONOCLONAL ANTIBODIES AGAINST HUMAN DICKKOPF3 AND USES THEREOF” (Board of Regents, The University of Texas System, priority 2018, published 2021):

What was measured:
[1] = biological target: T1, DKK3 (Homo sapiens, UniProt Q9UBP4); assay: Cell surface binding of His-tagged rhDKK3 by flow cytometry; details: BxPC3 or L3.6p1 cells, rhDKK3 10 μg/ml, JM6-6-1 70 μg/ml
T1 construct: purchased R&D
Procedure: FIGS. 11A-C. DKK3 expression in autochthonous model of PDAC and effects of DKK3 mAb on cell surface binding of DKK3 and orthotopic model. (FIG. 11A) DKK3 expression was measured by qPCR in pancreatic tumors from P48-Cre; Kras LSL-G12D;Trp53fl/fl and P48-Cre; Kras LSL-G12D;Trp53fl/+ mice that are either wild type DKK3 or heterozygous or homozygous DKK3-null. Relative expression of DKK3 mRNA in DKK3+/− hetero mice is 53% of DKK3^+/+ mice. (FIG. 11B) DKK3 cell surface binding was assessed by incubating BxPC3 or L3.6p1 cells with His-tagged rhDKK3 (10 μg/ml) with or without JM6-6-1 (70 μg/ml) and positive cells were sorted by flow cytometry. (FIG. 11C) Mice bearing orthotopic BxPC3 tumors were treated with DKK3 mAb JM6-6-1 (5 mg/kg i.p. once every 5 days). Overall tumor progression was measured every 3-4 days by IVIS imaging.
Binding assay. Cell surface binding of DKK3 was performed using flow cytometry. In brief, BxPC3 or L3.6p1 cells (0.5×10^6) were incubated for 30 min with His-labeled rhDKK3 (10 μg/mL) with or without JM6-6-1 (70 μg/mL). After washing with binding buffer (3% BSA in PBS), cells were stained with 1:100 anti-His antibody (abCam) for 30 min and followed by staining with secondary antibody conjugated with Dylight488 for 20 min. The cells were fixed with 2% paraformaldehyde and were subjected to fluorescent signal detection by BD FACSCalibur.

[2] = tested on: KPC model of PDAC; assay: Survival of KPC mice (P48-Cre; Kras LSL-G12D;Trp53fl/fl) with wild type DKK3; format: in vivo, mouse
Procedure: (§1) HPSCs and BxPC3 cells were treated with DKK3 mAb clones JM6-6-1 and JM8-12-1 or isotype control mAb or PBS. (FIGS. 5A-B) HPSC apoptosis and migration as measured by FACS and Transwell migration assay at 48 hours. (FIG. 5C) BxPC3 migration in response to rhDKK3 10 μg/ml as measured by Transwell migration assay at 48 hours. (FIG. 5D) BxPC3 resistance to gemcitabine 100 μM as measured by MTS proliferation assay at 6 days. HPSC-CM, pancreatic stellate cell conditioned media, 10 μg/ml. The orthotopic co-injection BxPC3+ HPSC model of PDAC was used to test the efficacy of DKK3 mAb clones JM6-6-1 or JM8-12-1 (5 mg/kg i.p. once every 5 days). (FIG. 5E) Overall tumor progression was measured every 3-4 days by IVIS imaging. (FIG. 5F) Metastatic tumors in the peritoneal cavity after removal of the primary pancreatic tumor are shown by IVIS imaging. (FIG. 5G) Kaplan Meier survival curve showing mice treated with DKK3 mAb clone JM8-12 (right-most line), control mAb (middle line), or PBS (left-most line). (FIG. 5H) KPC mice (P48-Cre; Kras LSL-G12D;Trp53fl/fl) with either wild type DKK3 (solid lines) or deficient in DKK3 (“DKK3-KO,” dashed lines) were treated with DKK3 mAb JM6-6-1 (5 mg/kg i.p. once every 5 days), PBS or control mAb. Kaplan Meier survival curve is shown with hazard ratios (Log-rank test). *p<0.05, **p<0.01, ***p<0.001, ****p<0.0001 vs. control Ab.
Two GEMMs of PDAC that differ in the pancreas-specific promoter to target oncogenic Kras expression (Hingorani et al., 2005; Hingorani et al., 2003) were used in the experiments to evaluate the effect of DKK3 neutralizing mAb (Pdx1-Cre; Kras^LSL-G12D; Trp53^R172H/+ and P48-Cre; Kras^LSL-G12D; Trp53^fl/fl). To evaluate the effects of genetic ablation of DKK3 on pancreatic cancer development, DKK3-null mice were crossed to P48-Cre; Kras^LSL-G12D;Trp53^R172H or P48-Cre; Kras^LSL-G12D; Trp53^fl/fl mice (Hingorani et al., 2005; Hingorani et al., 2003), and the progeny were monitored until they were moribund. Tissue and blood samples were collected after the mice were euthanized. […]

[3] = tested on: BxPC3 + HPSC orthotopic tumors; assay: Orthotopic co-injection BxPC3 + HPSC nude mouse model of PDAC; format: in vivo; details: 5 mg/kg i.p. once every 5 days, vs PBS or control mAb
Procedure: as §1
An orthotopic nude mouse model of PDAC using BxPC3 cancer cells labeled with firefly luciferase (BxPC3-FL) co-injected with HPSCs has been previously described (Hwang et al., 2008). Mice received intrapancreatic injections of BxPC3-FL (1×10^6 per mouse) with HPSC-shControl or HPSC-shDKK3 in a tumor-to-stroma ratio of 1:0 or 1:3 in 50-μL of HBSS and tumor growth was monitored using IVIS imaging (Hwang et al., 2008). In addition, a syngeneic immunocompetent DKK3 null model was used, provided by Dr. C. Niehrs (Barrantes Idel et al., 2006), that was injected with murine PDAC cells (termed “KPC cells”) isolated from tumors arising in a GEMM of PDAC (Pdx1-Cre; Kras^LSL-G12D;Trp53^R172H/+) (Hingorani et al., 2005; Hingorani et al., 2003) and labeled with luciferase.
The efficacy of DKK3 mAb was tested in vivo using the previously described orthotopic co-implantation nude mouse model of PDAC with human PSCs mixed with luciferase-labeled BxPC3 cancer cells (1:3 tumor:PSC ratio). Mice were treated with either phosphate-buffered saline (PBS), isotype control mAb, or DKK3 mAb (clone JM6-6-1; 5 mg/kg i.p. once every 5 days) and tumor growth was followed with IVIS imaging. […] Tumors in the PBS and control mAb groups grew rapidly from day 22 onward, with an 8-fold increase in the luciferase signal.

[4] = JM6-6-1 5 mg/kg i.p. once every 5 days

T1 sequence (Q9UBP4 22-350): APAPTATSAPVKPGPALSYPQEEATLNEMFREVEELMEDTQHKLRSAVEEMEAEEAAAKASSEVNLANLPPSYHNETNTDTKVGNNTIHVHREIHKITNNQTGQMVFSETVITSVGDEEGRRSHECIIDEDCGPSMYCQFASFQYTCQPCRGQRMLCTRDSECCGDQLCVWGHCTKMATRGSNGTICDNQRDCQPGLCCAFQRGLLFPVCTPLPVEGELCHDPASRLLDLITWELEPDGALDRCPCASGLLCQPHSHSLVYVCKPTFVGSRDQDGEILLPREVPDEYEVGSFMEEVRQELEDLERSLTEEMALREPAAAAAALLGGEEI

B1: JM6-6-1: monoclonal antibody against human DKK3; heavy chain variable SEQ ID NO: 19, light chain variable SEQ ID NO: 20 (antibody, V domains shown)
VH: EVKLVESGGGLVKPGGSLKLSCAASGFTFTIEYMAWIRQTPEKRLEWVASISSGGDDIYYADNVKGRFTISRDNAKNTLYLQMSSLKSEDTAIYYCSRSLSDWGQGTTLTVSSAKTTPPSDYPLA
VL: MTQTPLSLPVSLGDQASISCRSSQSILHSNGHTYLEWYLQKPGQSPKLLIYKVSNRFSGVPDRFSGSGSGTDFTLKISRVEAEDLGVYYCFQGSHVPFTFGSGTKLEIERADAAQ
blocking of rhDKK3 binding to PDAC cells [1]: effective in blocking binding of rhDKK3 to PDAC cells | hazard ratio (HR) compared to PBS or isotype control mAb [2, 4]: 0.24 | increase of median survival compared to PBS or isotype control mAb [2, 4]: 43% | median survival ([2]; KPC mice with wild type DKK3): 61.5 days | tumor growth by IVIS imaging ([3]; day 22 until day 33): significant inhibition in tumor growth | lower volume of metastatic disease in peritoneal cavity by luciferase signal [3]: 6.5 fold
